Experimental data from PMC2192707.

Target: T1, calnexin (UniProt P35564)
T1 sequence: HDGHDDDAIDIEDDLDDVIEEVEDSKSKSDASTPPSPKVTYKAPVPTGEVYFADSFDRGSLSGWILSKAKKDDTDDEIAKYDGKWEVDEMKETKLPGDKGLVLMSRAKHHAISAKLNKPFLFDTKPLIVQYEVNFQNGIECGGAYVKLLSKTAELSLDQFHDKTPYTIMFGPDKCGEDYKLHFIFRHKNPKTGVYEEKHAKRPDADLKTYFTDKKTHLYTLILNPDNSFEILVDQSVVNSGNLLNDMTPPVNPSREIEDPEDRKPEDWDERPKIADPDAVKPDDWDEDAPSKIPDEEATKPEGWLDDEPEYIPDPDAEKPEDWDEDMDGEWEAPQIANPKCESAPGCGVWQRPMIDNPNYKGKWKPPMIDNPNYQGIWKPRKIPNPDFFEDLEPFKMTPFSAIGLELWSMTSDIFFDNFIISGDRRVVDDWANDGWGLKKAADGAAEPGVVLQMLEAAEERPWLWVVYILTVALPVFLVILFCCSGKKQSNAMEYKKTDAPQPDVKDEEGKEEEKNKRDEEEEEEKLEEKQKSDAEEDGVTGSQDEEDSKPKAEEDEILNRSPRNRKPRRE
Conditions: co-IP

| Substance | percent of heterodimers associated with calnexin |
| --- | --- |
| H-2Db class I heavy chain (endogenous in EL4) | 85% ofD b heterodimers |
| H-2Kb class I heavy chain | ~45% ofK b heterodimers |
